# Measured values published in paper PMC5669353 (Biochemistry and Biophysics Reports, 2015).
# Assays:
# lactoperoxidase [1] = target: T1, lactoperoxidase (Bos taurus, UniProt P80025); conditions: read-out: Km, / µM; 80 uM H2O2, 2 mM SCN-, pH 7.4, 37 C; substrate
# lactoperoxidase [2] = target: T1, lactoperoxidase; assay type: biochemical
# O=C(O)c1ccc(O)cc1O = experiment: purified protein, by the assay type
# O=C(O)c1cc(O)cc(O)c1 = experiment: purified protein, by the assay type
# O=C(O)c1cc(O)ccc1O = experiment: purified protein, by the assay type
# O=C(O)c1ccc(O)cc1 = experiment: purified protein, by the assay type
# O=C(O)c1cc(O)c(O)c(O)c1 = experiment: purified protein, by the assay type
# O=C(O)c1c(O)cccc1O = experiment: purified protein, by the assay type
# O=C(O)/C=C/c1cccc(O)c1 = experiment: purified protein, by the assay type
# O=C(O)c1ccccc1O = experiment: purified protein, by the assay type
# O=C(O)c1ccc(O)c(O)c1O = experiment: purified protein, by the assay type
# [3] = test system: O=C1C[C@@H](c2ccc(O)cc2)Oc2cc(O)cc(O)c21; experiment: purified protein, by the assay type
# [4] = test system: O=C1c2c(O)cc(O)cc2O[C@H](c2ccc(O)c(O)c2)[C@H]1O; experiment: purified protein, by the assay type
# OCCc1ccc(O)cc1 = experiment: purified protein, by the assay type
# COc1ccc(C(=O)O)cc1O = experiment: purified protein, by the assay type
# COc1cc(C(=O)O)ccc1O = experiment: purified protein, by the assay type
# [5] = test system: O=C1C[C@@H](c2ccc(O)c(O)c2)Oc2cc(O)cc(O)c21; experiment: purified protein, by the assay type
# O=C(O)c1cccc(O)c1O = experiment: purified protein, by the assay type
# O=C(O)/C=C/c1ccc(O)cc1 = experiment: purified protein, by the assay type
# O=C(O)c1cccc(O)c1 = experiment: purified protein, by the assay type
# OCCc1ccc(O)c(O)c1 = experiment: purified protein; conditions: heme substrate channel of LPO
# [6] = test system: O=c1cc(-c2ccc(O)cc2)oc2cc(O)cc(O)c12; experiment: purified protein; conditions: heme
# O=C(O)c1ccc(O)c(O)c1 = experiment: purified protein; conditions: heme
# [7] = test system: O=c1cc(-c2ccc(O)c(O)c2)oc2cc(O)cc(O)c12; experiment: purified protein; conditions: heme
# [8] = test system: O=C(O)/C=C/c1ccc(O)c(O)c1; experiment: purified protein; conditions: heme
# [9] = test system: Oc1cc(O)c2c(c1)O[C@H](c1ccc(O)c(O)c1)[C@H](O)C2; experiment: purified protein; conditions: heme
# [10] = test system: O=c1c(O)c(-c2ccc(O)c(O)c2)oc2cc(O)cc(O)c12; experiment: purified protein; conditions: heme
# [11] = test system: O=C1C[C@@H](c2ccc(O)c(O)c2)Oc2cc(O)cc(O)c21; experiment: purified protein; conditions: heme
molecule,measurement,setting,value
"COc1ccc(C(=O)O)cc1OC [3,4-dimethoxybenzoic acid]",Km,lactoperoxidase [1],981 ± 69.8 µM
"O=C(O)c1c(O)cc(O)cc1O [2,4,6-trihydroxybenzoic acid]",IC50,lactoperoxidase [2],36.7 ± 9.6 µM
O=c1cc(-c2ccccc2)oc2cc(O)cc(O)c12 [chrysin],IC50,lactoperoxidase [2],0.23 ± 0.15 µM
lactoperoxidase (Bos taurus),Km,O=C(O)c1ccc(O)cc1O,119.6 ± 8.3 µM
same,kcat,O=C(O)c1ccc(O)cc1O,7 s⁻¹
same,kcat/Km,O=C(O)c1ccc(O)cc1O,60000 M⁻¹ s⁻¹
same,Km,O=C(O)c1cc(O)cc(O)c1,118.0 ± 7.9 µM
same,kcat,O=C(O)c1cc(O)cc(O)c1,22.7 s⁻¹
same,kcat/Km,O=C(O)c1cc(O)cc(O)c1,190000 M⁻¹ s⁻¹
same,Km,O=C(O)c1cc(O)ccc1O,304.2 ± 0.1 µM
same,kcat,O=C(O)c1cc(O)ccc1O,22.4 s⁻¹
same,kcat/Km,O=C(O)c1cc(O)ccc1O,70000 M⁻¹ s⁻¹
same,Km,O=C(O)c1ccc(O)cc1,119.6 ± 8.1 µM
same,kcat,O=C(O)c1ccc(O)cc1,16.7 s⁻¹
same,kcat/Km,O=C(O)c1ccc(O)cc1,140000 M⁻¹ s⁻¹
same,Km,O=C(O)c1cc(O)c(O)c(O)c1,176.8 ± 0.0 µM
same,kcat,O=C(O)c1cc(O)c(O)c(O)c1,30.9 s⁻¹
same,kcat/Km,O=C(O)c1cc(O)c(O)c(O)c1,180000 M⁻¹ s⁻¹
same,Km,O=C(O)c1c(O)cccc1O,149.1 ± 51.4 µM
same,kcat,O=C(O)c1c(O)cccc1O,14.8 s⁻¹
same,kcat/Km,O=C(O)c1c(O)cccc1O,100000 M⁻¹ s⁻¹
same,Km,O=C(O)/C=C/c1cccc(O)c1,37.8 ± 8.9 µM
same,kcat,O=C(O)/C=C/c1cccc(O)c1,24 s⁻¹
same,kcat/Km,O=C(O)/C=C/c1cccc(O)c1,630000 M⁻¹ s⁻¹
same,Km,O=C(O)c1ccccc1O,1638.4 ± 439.3 µM
same,Km,O=C(O)c1ccc(O)c(O)c1O,84.8 ± 0.0 µM
same,kcat,O=C(O)c1ccc(O)c(O)c1O,24.5 s⁻¹
same,kcat/Km,O=C(O)c1ccc(O)c(O)c1O,290000 M⁻¹ s⁻¹
same,Km,[3],0.2 ± 0.0 µM
same,kcat,[3],19 s⁻¹
same,kcat/Km,[3],1.03e+08 M⁻¹ s⁻¹
same,Km,[4],0.8 ± 0.0 µM
same,kcat,[4],48.2 s⁻¹
same,kcat/Km,[4],6.3e+07 M⁻¹ s⁻¹
same,Km,OCCc1ccc(O)cc1,4.5 ± 0.0 µM
same,kcat,OCCc1ccc(O)cc1,39 s⁻¹
same,kcat/Km,OCCc1ccc(O)cc1,8.73e+06 M⁻¹ s⁻¹
same,Km,COc1ccc(C(=O)O)cc1O,803.5 ± 147.2 µM
same,kcat,COc1ccc(C(=O)O)cc1O,67.7 s⁻¹
same,kcat/Km,COc1ccc(C(=O)O)cc1O,80000 M⁻¹ s⁻¹
same,Km,COc1cc(C(=O)O)ccc1O,948.4 ± 0.2 µM
same,kcat,COc1cc(C(=O)O)ccc1O,78.5 s⁻¹
same,kcat/Km,COc1cc(C(=O)O)ccc1O,80000 M⁻¹ s⁻¹
same,Km,[5],0.4 ± 0.0 µM
same,kcat,[5],52.4 s⁻¹
same,kcat/Km,[5],1.46e+08 M⁻¹ s⁻¹
same,Km,O=C(O)c1cccc(O)c1O,71.3 ± 1.3 µM
same,kcat,O=C(O)c1cccc(O)c1O,17.9 s⁻¹
same,kcat/Km,O=C(O)c1cccc(O)c1O,250000 M⁻¹ s⁻¹
same,Km,O=C(O)/C=C/c1ccc(O)cc1,35.1 ± 0.1 µM
same,kcat,O=C(O)/C=C/c1ccc(O)cc1,11 s⁻¹
same,kcat/Km,O=C(O)/C=C/c1ccc(O)cc1,310000 M⁻¹ s⁻¹
same,Km,O=C(O)c1cccc(O)c1,144.2 ± 28.9 µM
same,kcat,O=C(O)c1cccc(O)c1,36.5 s⁻¹
same,kcat/Km,O=C(O)c1cccc(O)c1,250000 M⁻¹ s⁻¹
same,Km,OCCc1ccc(O)c(O)c1,1.6 ± 0.1 µM
same,kcat,OCCc1ccc(O)c(O)c1,67 s⁻¹
same,kcat/Km,OCCc1ccc(O)c(O)c1,4.21e+07 M⁻¹ s⁻¹
same,Km,[6],0.1 ± 0.0 µM
same,kcat,[6],13.1 s⁻¹
same,kcat/Km,[6],1.22e+08 M⁻¹ s⁻¹
same,Km,O=C(O)c1ccc(O)c(O)c1,63.9 ± 51.4 µM
same,kcat,O=C(O)c1ccc(O)c(O)c1,59.2 s⁻¹
same,kcat/Km,O=C(O)c1ccc(O)c(O)c1,930000 M⁻¹ s⁻¹
same,Km,[7],0.2 ± 0.0 µM
same,kcat,[7],91.6 s⁻¹
same,kcat/Km,[7],4.72e+08 M⁻¹ s⁻¹
same,Km,[8],6.9 ± 0.3 µM
same,kcat,[8],37.2 s⁻¹
same,kcat/Km,[8],5.4e+06 M⁻¹ s⁻¹
same,Km,[9],0.6 ± 0.0 µM
same,kcat,[9],41.4 s⁻¹
same,kcat/Km,[9],6.84e+07 M⁻¹ s⁻¹
same,Km,[10],1.7 ± 0.2 µM
same,kcat,[10],102 s⁻¹
same,kcat/Km,[10],6.07e+07 M⁻¹ s⁻¹
same,Km,[11],0.358 ± 0.005 µM
